This series concerns the molecule itself. As to the kind of experiment: self-assembly into virus-like particles, negative staining electron microscopy.

B1: Ring2 ORF1 protein expressed as a full-length protein in insect cells (other)
chain: MPYYYRRRRYNYRRPRWYGRGWIRRPFRRRFRRKRRVRPTYTTIPLKQWQPPYKRTCYIKGQDCLIYYSNLRLGMNSTMYEKSIVPVHWPGGGSFSVSMLTLDALYDIHKLCRNWWTSTNQDLPLVRYKGCKITFYQSTFTDYIVRIHTELPANSNKLTYPNTHPLMMMMSKYKHIIPSRQTRRKKKPYTKIFVKPPPQFENKWYFATDLYKIPLLQIHCTACNLQNPFVKPDKLSNNVTLWSLNTISIQNRNMSVDQGQSWPFKILGTQSFYFYFYTGANLPGDTTQIPVADLLPLTNPRINRPGQSLNEAKITDHITFTEYKNKFTNYWGNPFNKHIQEHLDMILYSLKSPEAIKNEWTTENMKWNQLNNAGTMALTPFNEPIFTQIQYNPDRDTGEDTQLYLLSNATGTGWDPPGIPELILEGFPLWLIYWGFADFQKNLKKVTNIDTNYMLVAKTKFTQKPGTFYLVILNDTFVEGNSPYEKQPLPEDNIKWYPQVQYQLEAQNKLLQTGPFTPNIQGQLSDNISMFYKFYFKWGGSPPKAINVENPAHQIQYPIPRNEHETTSLQSPGEAPESILYSFDYRHGNYTTTALSRISQDWALKDTVSKITEPDRQQLLKQALECLQISEETQEKKEKEVQQLISNLRQQQQLYRERIISLLKDQ
notes: also called Anellovirus ORF1 protein
As for B1, the binding result is listed as “binds”.

For the origin of these results see US20250257368A1 (FLAGSHIP PIONEERING INNOVATIONS V, published 2025).
